Starred links: 1 amine or outer side, 2 acyl side, 3 side chain; linkers in the order of their positions; H or OH if unused. Positions of bridges follow the written chain, without caps; N, C: chain ends. Non-standard residues stand in square brackets, D forms with d. Primed or numbered codes have the meaning given here. PyrS2(3) = (S)-3-amino-1-((pent-4-en-1-yloxy)carbonyl)pyrrolidine-3-carboxylic acid, stapling residue, C=CCCCOC(=O)N1CC[C@@](N[*:1])(C(=O)[*:2])C1; PyrS2″ = (S)-3-amino-1-((pent-4-en-1-yloxy)carbonyl)pyrrolidine-3-carboxylic acid (stapling residue), C=CCCCOC(=O)N1CC[C@@](N[*:1])(C(=O)[*:2])C1; TfeGA = (S)-2-amino-3-((carboxymethyl)(2,2,2-trifluoroethyl)amino)propanoic acid, O=C([C@H](CN(CC(=O)[*:3])CC(F)(F)F)N[*:1])[*:2]; B5(3) = 2,2-bis(4-pentenyl)glycine (stitching residue), C=CCCCC(CCCC=C)(N[*:1])C(=O)[*:2]; B5″ = 2,2-bis(4-pentenyl)glycine, stitching residue, C=CCCCC(CCCC=C)(N[*:1])C(=O)[*:2]; Bta = N[C@@H](Cc1csc2ccccc12)C(=O)O; αAllylPro = C=CC[C@@]1(C(=O)O)CCCN1; tBuAla = CC(C)(C)C[C@H](N)C(=O)O; 3Thi = N[C@@H](Cc1ccsc1)C(=O)O
T1: beta-catenin (Homo sapiens (Human), UniProt P35222 1-781)
T1 sequence: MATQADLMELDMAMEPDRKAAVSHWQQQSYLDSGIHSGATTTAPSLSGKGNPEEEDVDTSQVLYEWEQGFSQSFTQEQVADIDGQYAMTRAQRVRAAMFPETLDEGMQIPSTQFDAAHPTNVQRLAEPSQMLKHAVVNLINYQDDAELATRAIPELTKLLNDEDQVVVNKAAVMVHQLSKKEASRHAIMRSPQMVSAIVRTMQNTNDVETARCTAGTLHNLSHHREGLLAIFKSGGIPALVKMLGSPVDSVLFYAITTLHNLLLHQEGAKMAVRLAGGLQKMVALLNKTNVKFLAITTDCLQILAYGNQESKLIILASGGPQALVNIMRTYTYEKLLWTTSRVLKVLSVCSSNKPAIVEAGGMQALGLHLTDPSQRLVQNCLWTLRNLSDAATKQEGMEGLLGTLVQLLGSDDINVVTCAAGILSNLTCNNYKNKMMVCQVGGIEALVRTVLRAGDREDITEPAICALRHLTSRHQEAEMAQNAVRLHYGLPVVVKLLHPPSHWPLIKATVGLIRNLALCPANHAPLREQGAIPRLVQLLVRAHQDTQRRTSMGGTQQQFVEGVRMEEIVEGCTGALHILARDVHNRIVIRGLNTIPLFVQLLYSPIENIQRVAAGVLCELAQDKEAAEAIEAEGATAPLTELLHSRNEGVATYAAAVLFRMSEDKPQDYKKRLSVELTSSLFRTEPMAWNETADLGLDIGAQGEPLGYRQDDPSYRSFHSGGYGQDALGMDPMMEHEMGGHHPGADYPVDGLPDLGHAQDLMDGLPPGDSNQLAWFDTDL

B1: I-1001 (peptide)
peptide: Ac-[αAllylPro]D[tBuAla][B5(3)][3Thi][TfeGA]AAFN[PyrS2″]D[Bta]Q-NH2
modifications: staple 1-4, 4-11
B2: I-988 (peptide)
peptide: Ac-[αAllylPro]D[tBuAla][B5(3)]D[TfeGA]AAFF[PyrS2″]F[Bta]Q-NH2
modifications: staple 1-4, 4-11
B3: I-762 (peptide)
peptide: Ac-[αAllylPro]D[tBuAla][B5″]D[TfeGA]AAFN[PyrS2(3)][3Thi][Bta]Q-NH2
modifications: staple 1-4, 4-11

Biological target: T1, beta-catenin
Test: cell-based or functional assay

Binder	DLD1 TCF c2 BrightGlo % Inhibition, 0.625 uM, replicate 1	DLD1 TCF c2 BrightGlo % Inhibition, 0.625 uM, replicate 2	DLD1 TCF c2 BrightGlo % Inhibition, 0.625 uM, replicate 3	DLD1 TCF c2 BrightGlo % Inhibition, 1.25 uM, replicate 1	DLD1 TCF c2 BrightGlo % Inhibition, 1.25 uM, replicate 2	DLD1 TCF c2 BrightGlo % Inhibition, 1.25 uM, replicate 3	DLD1 TCF c2 BrightGlo % Inhibition, 2.5 uM, replicate 1	DLD1 TCF c2 BrightGlo % Inhibition, 2.5 uM, replicate 2	DLD1 TCF c2 BrightGlo % Inhibition, 2.5 uM, replicate 3	DLD1 TCF c2 BrightGlo % Inhibition, 5 uM, replicate 1
B1	-1.5%	9.3%	4.5%	-7%	-2.8%	6.1%	-8%	-7.6%	-5%	-6.7%
B2	11%	10.7%	15.5%	5.7%	22.3%	21.2%	13.3%	28.8%	33.4%	32%
B3	14.5%	18.6%	9.3%	12.9%	16.9%	5.5%	12.9%	17.4%	11.9%	28.2%

Same assay, conditions: not given

Binder	DLD1 TCF c2 BrightGlo % Inhibition, 5 uM, replicate 2	DLD1 TCF c2 BrightGlo % Inhibition, 5 uM, replicate 3	DLD1 TCF c2 BrightGlo % Inhibition, 10 uM, replicate 1	DLD1 TCF c2 BrightGlo % Inhibition, 10 uM, replicate 2	DLD1 TCF c2 BrightGlo % Inhibition, 10 uM, replicate 3	DLD1 TCF c2 BrightGlo % Inhibition, 20 uM, replicate 1	DLD1 TCF c2 BrightGlo % Inhibition, 20 uM, replicate 2	DLD1 TCF c2 BrightGlo % Inhibition, 20 uM, replicate 3
B1	-6.7%	-0.7%	-3.6%	-4.8%	-7.4%	-1.2%	7.5%	3.5%
B2	57.8%	62%	61.5%	72%	76.2%	78.1%	81.3%	81.9%
B3	45.2%	44.6%	56.8%	70.2%	65.6%	75.7%	81.9%	78.7%

— patent US20240116985A1 (published 2024)
